Measurements reported in US20220154204A1 (University of California, published 2022).

Biological target: T1, nYFP-GEF1 (UniProt Q93ZY2 1-548)
T1 construct: BiFC positive control partner; also called RopGEF1; not shown: N-terminal YFP fragment (nYFP) from BiFC vector pSPYNE173
T1 sequence (looked up): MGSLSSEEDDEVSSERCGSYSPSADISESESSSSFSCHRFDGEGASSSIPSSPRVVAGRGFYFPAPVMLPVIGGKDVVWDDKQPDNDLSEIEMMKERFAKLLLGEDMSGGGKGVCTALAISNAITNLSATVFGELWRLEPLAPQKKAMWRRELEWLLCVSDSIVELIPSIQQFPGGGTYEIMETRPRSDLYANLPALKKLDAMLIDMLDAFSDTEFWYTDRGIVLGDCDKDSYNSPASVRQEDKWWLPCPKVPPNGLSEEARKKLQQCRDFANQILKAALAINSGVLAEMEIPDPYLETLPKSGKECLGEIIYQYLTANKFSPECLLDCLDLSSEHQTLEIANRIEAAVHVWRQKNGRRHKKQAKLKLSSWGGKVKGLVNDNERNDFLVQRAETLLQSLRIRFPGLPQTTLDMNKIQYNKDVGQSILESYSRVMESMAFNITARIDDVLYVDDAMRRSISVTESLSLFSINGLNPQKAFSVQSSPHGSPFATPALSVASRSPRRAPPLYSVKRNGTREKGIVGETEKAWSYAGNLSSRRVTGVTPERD
Test: BiFC in Nicotiana benthamiana leaves, positive control
Experimental: a, Co-immunoprecipitation experiments using transiently expressed M3Kδ6 and OST1/SnRK2.6 in Arabidopsis mesophyll cell protoplasts. OST1/SnRK2.6-GFP or GFP control co-expressed with M3Kδ6-FLAG were immunoprecipitated with GFP antibodies. Precipitated proteins were analyzed by immunoblots using GFP or FLAG antibody. b and c, BiFC analyses of nYFP-M3Kδ6 (b) or nYFP-M3Kδ7 (c) with OST1/SnRK2.6-cYFP, SnRK2.2-cYFP, 2.4-cYFP and 2.10-cYFP infiltrated in 6-week-old Nicotiana benthamiana leaves. nYFP-GEF1/cYFP-ABI1 combination was used as a positive control. All images are at the same scale. Scale bars=50 μm. d and e, BiFC quantifications measured from maximal projections of z-stacks and normalized over an infiltration control expressing p19 only. BiFC quantifications were analyzed by one-way ANOVA followed by Tukey's tests. Confocal images were acquired using identical settings for each BiFC experiment. Means±s.e.m. (n=45).

binding result: binds
B1: cYFP-ABI1 (enzyme, UniProt P49597 1-434, looked up)
chain: MEEVSPAIAGPFRPFSETQMDFTGIRLGKGYCNNQYSNQDSENGDLMVSLPETSSCSVSGSHGSESRKVLISRINSPNLNMKESAAADIVVVDISAGDEINGSDITSEKKMISRTESRSLFEFKSVPLYGFTSICGRRPEMEDAVSTIPRFLQSSSGSMLDGRFDPQSAAHFFGVYDGHGGSQVANYCRERMHLALAEEIAKEKPMLCDGDTWLEKWKKALFNSFLRVDSEIESVAPETVGSTSVVAVVFPSHIFVANCGDSRAVLCRGKTALPLSVDHKPDREDEAARIEAAGGKVIQWNGARVFGVLAMSRSIGDRYLKPSIIPDPEVTAVKRVKEDDCLILASDGVWDVMTDEEACEMARKRILLWHKKNAVAGDASLLADERRKEGKDPAAMSAAEYLSKLAIQRGSKDNISVVVVDLKPRRKLKSKPLN
notes: BiFC positive control partner; order of tag and protein as the printed name gives it; not shown: C-terminal YFP fragment (cYFP) from BiFC vector pSPYCE(M)
